# Measurements reported in patent US20030175243A1.
# Target: natural cellular receptor for adenoviruses, on human 293 cells
# Experiment: cell-based or functional assay
Substance,propagation of the corresponding virus in 293 cells (multiplication factor) (multiplication factor),multiplication factor of the virus in 293 cells (7 days post-infection) (multiplication factor)
Ad5 fiber ΔD (deletion of the D sheet of the Ad5 fiber) (from UniProt P11818 1-581),< 1,–
Ad5 fiber CD5 to CD3 (replacement of the CD loop of an Ad5 with its equivalent from an Ad3),< 1,–
Ad5 fiber with the mutation L457K (from UniProt P11818 1-581),< 1,–
Ad5 fiber with the mutation A455F (from UniProt P11818 1-581),< 1,–
Ad5 fiber ΔCD+D (deletion of the CD loop and of the D sheet) (from UniProt P11818 1-581),< 1,–
Ad5 fiber with the mutation I459A (from UniProt P11818 1-581),< 1,–
Ad5 fiber with the mutation G443D (from UniProt P11818 1-581),< 1,–
"GRP fiber (Ad5 fiber with a 12-residue spacer arm and the GRP peptide at its C-terminal end), carried by AdTG4628 (from UniProt P11818 1-581)",–,1000
